Measurements: publication PMC2804184

Molecular target: p97 C-terminal peptide (last 10 residues, …), N-terminally labeled with fluorescein
Test: fluorescence polarisation

For “PLAA C-terminal PUL domain (residues 454-738) (domain or fragment)”, the Kd was 5 µM.
